{"source": "paper PMC2796330", "target": "the unphosphorylated T-PY motif (Smad2 or Smad3 peptide)", "experiment": "ITC", "data": [{"substance": "recombinant Nedd4L WW2 domain (domain or fragment)", "values": [{"measurement": "fold lower affinity than for the pT-PY motif peptide", "value": "7 to 15", "unit": "fold"}]}]}
